Assay results published in PMC4452428 (Biotechnology and bioengineering, 2015).

Legend:
[1] = Michaelis-Menten kinetics, colorimetric nitrocefin assay; assay type: biochemical; conditions: nitrocefin 10 μM to 500 μM, 96-well, triplicate
[2] = tested on: MHC II alleles DRB1*0101, 0401, 0701, and 1501; conditions: IC50≥100 μM; average per protein for designs

B1: P99 beta-lactamase (protein, UniProt P05364 21-381, looked up)
Beta-lactamase: TPVSEKQLAEVVANTITPLMKAQSVPGMAVAVIYQGKPHYYTFGKADIAANKPVTPQTLFELGSISKTFTGVLGGDAIARGEISLDDAVTRYWPQLTGKQWQGIRMLDLATYTAGGLPLQVPDEVTDNASLLRFYQNWQPQWKPGTTRLYANASIGLFGALAVKPSGMPYEQAMTTRVLKPLKLDHTWINVPKAEEAHYAWGYRDGKAVRVSPGMLDAQAYGVKTNVQDMANWVMANMAPENVADASLKQGIALAQSRYWRIGSMYQGLGWEMLNWPVEANTVVEGSDSKVALAPLPVAEVNPPAPPVKASWVHKTGSTGGFGSYVAFIPEKQIGIVMLANTSYPNPARVEAAYHILEALQ
[1]; non-linear regression, biological duplicate
  Km: 80 ± 10 µM
[1]; non-linear regression, enzymes purified and assayed in biological duplicate
  kcat: 360 ± 20 s⁻¹
[1]; biological duplicate
  kcat/Km: 4.6 ± 0.7 s^−1μM^−1
[2]
  non-binding peptides out of 36: 13/36
